Assay results as given in patent US12630600B2 (MEDIMMUNE LIMITED, priority 2022, dated 2026).
Starred links: 1 amine or outer side, 2 acyl side, 3 side chain; linkers in the order of their positions; H or OH if unused. Non-standard residues stand in square brackets, D forms with d. Groups on a side chain read outwards from the residue. No end group written: not given here. *: point of attachment. C20 diacid = O=C(O)CCCCCCCCCCCCCCCCCCC(=O)*; C18 diacid = O=C(O)CCCCCCCCCCCCCCCCC(=O)*; γGlu = O=C(O)[C@H](CCC(=O)[*:2])N[*:1]; αMeF = C[C@](N)(Cc1ccccc1)C(=O)O; AEEA = NCCOCCOCC(=O)O; Aib = CC(C)(N)C(=O)O

Columns and labels:
[1] = molecular target: human GLP-1 receptor (human, UniProt P43220); test: cell-based or functional assay
[2] = molecular target: human glucagon receptor (human, UniProt P47871); test: cell-based or functional assay

Binder	hGLP-1R EC50 (pM) [1] [pM]	hGluc-R EC50 (pM) [2] [pM]
H[Aib]HGS[αMeF]TSDVSK[αMeF]LDSRAAK([AEEA-AEEA-γGlu-γGlu-C20 diacid])DFVQWIANT-NH2 (not fully specified) [Peptide 290]	347	260
H[Aib]HGS[αMeF]TSDVSK[αMeF]LDSRAAK([AEEA-AEEA-γGlu-γGlu-C20 diacid])D[αMeF]IA[Aib]IAET-NH2 [Peptide 302]	151	271
HSHGS[αMeF]TSDVSK[αMeF]LDSRAAK([AEEA-AEEA-γGlu-C18 diacid])D[αMeF]VQ[Aib]IANT-NH2 [Peptide 285]	301	87
H[Aib]HGS[αMeF]TSDVSKYLDSRAAKDFVQWIANT-NH2 (not fully specified (residue 20)) [Peptide 292]	28.7	20.4
H[Aib]HGS[αMeF]TSDVSK[αMeF]LDSRAAK([AEEA-AEEA-γGlu-C18 diacid])D[αMeF]VQ[Aib]IANT-NH2 [Peptide 284]	43.4	119
H[Aib]HGS[αMeF]TSDVSKYLDSRAAK([AEEA-AEEA-γGlu-C18 diacid])D[αMeF]VQ[Aib]IANT-NH2 (not fully specified; also: X13: αMePhe or Y (table)) [Peptide 286]	31.6	53
H[Aib]HGS[αMeF]TSDVSK[αMeF]LDSRAAKD[αMeF]VQWIANT-NH2 (not fully specified (residue 20); also: X13: αMePhe or Y (table)) [Peptide 289]	118	148
H[Aib]HGS[αMeF]TSDVSK[Aib]LDSRAAK([AEEA-AEEA-γGlu-C18 diacid])D[αMeF]VQ[Aib]IANT-NH2 [Peptide 296]	64.1	3250
H[Aib]HGS[αMeF]TSDVSR[αMeF]LDSRAAK([AEEA-AEEA-γGlu-γGlu-C20 diacid])D[αMeF]VQ[Aib]IANT-NH2 (N-terminus assumed; SMILES CC[C@H](C)[C@H](NC(=O)C(C)(C)NC(=O)[C@H](CCC(N)=O)NC(=O)[C@@H](NC(=O)[C@](C)(Cc1ccccc1)NC(=O)[C@H](CC(=O)O)NC(=O)[C@H](CCCCNC(=O)COCCOCCNC(=O)COCCOCCNC(=O)CC[C@H](NC(=O)CC[C@H](NC(=O)CCCCCCCCCCCCCCCCCCC(=O)O)C(=O)O)C(=O)O)NC(=O)[C@H](C)NC(=O)[C@H](C)NC(=O)[C@H](CCCNC(=N)N)NC(=O)[C@H](CO)NC(=O)[C@H](CC(=O)O)NC(=O)[C@H](CC(C)C)NC(=O)[C@](C)(Cc1ccccc1)NC(=O)[C@H](CCCNC(=N)N)NC(=O)[C@H](CO)NC(=O)[C@@H](NC(=O)[C@H](CC(=O)O)NC(=O)[C@H](CO)NC(=O)[C@@H](NC(=O)[C@](C)(Cc1ccccc1)NC(=O)[C@H](CO)NC(=O)CNC(=O)[C@H](Cc1c[nH]cn1)NC(=O)C(C)(C)NC(=O)[C@@H](N)Cc1c[nH]cn1)[C@@H](C)O)C(C)C)C(C)C)C(=O)N[C@@H](C)C(=O)N[C@@H](CC(N)=O)C(=O)N[C@H](C(N)=O)[C@@H](C)O) [Peptide 298]	75.5	573
H[Aib]HGS[αMeF]TSDVSK[αMeF]LDSRAAK([AEEA-AEEA-γGlu-C18 diacid])DFVQ[Aib]IANT-NH2 [Peptide 287]	27.5	26.5
H[Aib]HGS[αMeF]TSDVSK[Aib]LDSRAAK([AEEA-AEEA-γGlu-γGlu-C20 diacid])D[αMeF]VQ[Aib]IANT-NH2 [Peptide 295]	312	17100
H[Aib]HGS[αMeF]TSDVSK[αMeF]LDSRAAK([AEEA-AEEA-γGlu-C18 diacid])D[αMeF]VQ[Aib]IAET-NH2 (N-terminus assumed; SMILES CC[C@H](C)[C@H](NC(=O)C(C)(C)NC(=O)[C@H](CCC(N)=O)NC(=O)[C@@H](NC(=O)[C@](C)(Cc1ccccc1)NC(=O)[C@H](CC(=O)O)NC(=O)[C@H](CCCCNC(=O)COCCOCCNC(=O)COCCOCCNC(=O)CC[C@H](NC(=O)CCCCCCCCCCCCCCCCC(=O)O)C(=O)O)NC(=O)[C@H](C)NC(=O)[C@H](C)NC(=O)[C@H](CCCNC(=N)N)NC(=O)[C@H](CO)NC(=O)[C@H](CC(=O)O)NC(=O)[C@H](CC(C)C)NC(=O)[C@](C)(Cc1ccccc1)NC(=O)[C@H](CCCCN)NC(=O)[C@H](CO)NC(=O)[C@@H](NC(=O)[C@H](CC(=O)O)NC(=O)[C@H](CO)NC(=O)[C@@H](NC(=O)[C@](C)(Cc1ccccc1)NC(=O)[C@H](CO)NC(=O)CNC(=O)[C@H](Cc1c[nH]cn1)NC(=O)C(C)(C)NC(=O)[C@@H](N)Cc1c[nH]cn1)[C@@H](C)O)C(C)C)C(C)C)C(=O)N[C@@H](C)C(=O)N[C@@H](CCC(=O)O)C(=O)N[C@H](C(N)=O)[C@@H](C)O) [Peptide 300]	19.7	18.4
H[Aib]HGS[αMeF]TSDVSK[αMeF]LDSRAAK([AEEA-AEEA-γGlu-C18 diacid])D[αMeF]VQWIANT-NH2 [Peptide 288]	42.7	26.9
H[Aib]HGS[αMeF]TSDVSK[αMeF]LDSRAAK([AEEA-AEEA-γGlu-γGlu-C20 diacid])D[αMeF]VQ[Aib]IANT-OH [Peptide 304]	239	687
